Test results from patent publication US20140148397A1 (University of California, published 2014).
Ends that are not written are not given here.

B1: AgRP(83-120) (peptide)
peptide: SSRRCVRLHESCLGQQVPCCDPAATCYCRFFNAFCYCR-NH2
modifications: disulfide (positions not given here); not fully specified; also: oxidatively folded, disulfide pairing not given here
B2: AgRP(87-120) (peptide)
peptide: Ac-CVRLHESCLGQQVPCCDPAATCYCRFFNAFCYCR-NH2
modifications: disulfide (positions not given here); not fully specified; also: oxidatively folded, disulfide pairing not given here

Target: hMC3R (human, UniProt P41968 1-323)
Sequence (P41968 whole entry): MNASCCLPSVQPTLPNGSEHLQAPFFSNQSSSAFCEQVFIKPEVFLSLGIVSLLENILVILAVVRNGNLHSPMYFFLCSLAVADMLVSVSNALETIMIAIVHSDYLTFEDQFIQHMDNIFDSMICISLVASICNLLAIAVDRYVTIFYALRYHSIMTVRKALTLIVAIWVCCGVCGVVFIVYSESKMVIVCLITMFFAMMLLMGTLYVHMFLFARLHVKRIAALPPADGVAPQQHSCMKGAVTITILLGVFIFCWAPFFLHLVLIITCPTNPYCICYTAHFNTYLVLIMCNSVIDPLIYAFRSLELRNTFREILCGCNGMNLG
Assay: cell-based or functional assay

| Binder | EC50 (nM), NDP-MSH stimulated cAMP production in the presence of 0.10 µM AgRP protein |
| --- | --- |
| B1 | 2.96 nM |
| SSRRCVRLHESCLGQQVPCCDPCATCYCRFFNAFCYCRQLGTAMNPCSQT-NH2 (disulfide (positions not given here)) [AgRP-2Q] | 9.22 nM |
| SSRRCVRLHESCLGQQVPCCDPCATCYCRFFNAFCYCRKLKTKMNPCSRT-NH2 (disulfide (positions not given here)) [AgRP-2K] | 16.1 nM |
| KKRRCVRLHESCLGQQVPCCDPCATCYCRFFNAFCYCRKLKTKMNPCSRT-NH2 (disulfide (positions not given here)) [AgRP-4K] | 2.66 nM |
| SSQQCVRLHESCLGQQVPCCDPCATCYCRFFNAFCYCRQLGTAMNPCSQT-NH2 (disulfide (positions not given here)) [AgRP-4Q] | 1.62 nM |
| B2 | 5.5 nM |

Target: hMC4R (human, UniProt P32245 1-332)
Sequence (P32245 whole entry): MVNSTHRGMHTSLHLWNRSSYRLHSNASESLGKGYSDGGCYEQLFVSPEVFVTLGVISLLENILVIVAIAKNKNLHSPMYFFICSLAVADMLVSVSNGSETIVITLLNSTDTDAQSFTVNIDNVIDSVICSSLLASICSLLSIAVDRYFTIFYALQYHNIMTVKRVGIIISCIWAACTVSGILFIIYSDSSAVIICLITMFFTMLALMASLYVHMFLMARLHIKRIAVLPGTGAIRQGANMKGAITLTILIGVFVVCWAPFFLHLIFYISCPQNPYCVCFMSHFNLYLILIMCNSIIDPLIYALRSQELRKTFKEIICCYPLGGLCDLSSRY
Assay: cell-based or functional assay

| Binder | EC50 (nM), NDP-MSH stimulated cAMP production in the presence of 0.10 µM AgRP protein |
| --- | --- |
| B1 | 4.92 nM |
| SSRRCVRLHESCLGQQVPCCDPCATCYCRFFNAFCYCRQLGTAMNPCSQT-NH2 (disulfide (positions not given here)) [AgRP-2Q] | 6.66 nM |
| SSRRCVRLHESCLGQQVPCCDPCATCYCRFFNAFCYCRKLKTKMNPCSRT-NH2 (disulfide (positions not given here)) [AgRP-2K] | 4.54 nM |
| KKRRCVRLHESCLGQQVPCCDPCATCYCRFFNAFCYCRKLKTKMNPCSRT-NH2 (disulfide (positions not given here)) [AgRP-4K] | 1.72 nM |
| SSQQCVRLHESCLGQQVPCCDPCATCYCRFFNAFCYCRQLGTAMNPCSQT-NH2 (disulfide (positions not given here)) [AgRP-4Q] | 1.8 nM |
